Measurements reported in paper PMC5165034 (Frontiers in Immunology, 2016).

The binders below were run against influenza virus X-31 hemagglutinin (HA) (Influenza A virus X-31 (H3N2; HA of …, UniProt P03437, strain).

Binder	binding result
3A5 (VHH) VHH: EVQLVESGGGLVKPGGSLRLSCAASGFIFSDYYMSWIRQAPGKGLEWISYISSSGDSIYYADSVKGRFTISRDDAKNSLSLQMNSLRAEDTAVYYCARGWFGESHYSDFWGQGTLVTVSS	binds
4G9 (VHH) VHH: EVQLLESGGGLVQRGGSLRLSCAASGFTFSSYAMSWVRQAPGKGLEWVSAISGSGGSTHYADSVKGRFTISRDNSKNTLYLQMNSLRAEDTAVYYCAKKGDRGYFFDYWGQGTLVTVSS	binds
1D8 (VHH) VHH: EVQLVESGGGLVKPGGSLRLSCAASGFTFSDYYMSWIRQAPGKGLEWVSYISSSGSTIYYADSVKGRFTISRDNAKNSLYLQMNSLRAEDTAVYYCARGPPFDYWGQGTLVTVSS	binds
6F7 (VHH) VHH: EVQLVESGGGLVKPGGSLRLSCAASGFTFSDYYMSWIRQAPGKGLEWVSYISSSGRTIYYADSVKGRFTISRDNAKNSLYLQMNSLRAEDTAVYYCARGGIAVAGTTRHYSDYWGQGTLVTVSS	binds
2D1 (VHH) VHH: EVQLVESGGGLVKPGGSLRLSCAASGFTFSDYYMSWIRQAPGKGLEWVSYISSSGSTIYYADSVRGRFTISRDNAKDSLYLQMNSLRAEDTAVYYCARRRSLTVGAPTYWGQGTLVTVSS	binds
4D3 (VHH) VHH: EVQLVESGGGLVKPGGSLRLSCAASGFTFSDYYMSWIRQAPGKGLEWVSYISSSGSTLYYADSVRGRFTISRDNAKDSLYLQMNSLRAEDTAVYYCARRRSLTVGAPTYWGQGTLVTVSS	binds
2B3 (VHH) VHH: EVQLVESGGGLVKPGGSLRLSCAASGFTFSDYYMSWIRQAPGKGLEWVSYISSSGSIIYYADSVKGRFTISRDNAKDSLYLQMNSLRAEDTAVYYCARRRSLTVGAPTYWGQGTLVTVSS	binds
2E2 (VHH) VHH: EVQLVESGGGLVKPGGSLRLSCEASGFTFSDYYMSWIRQAPGKGLEWVSYISSSGSTIYYADSVKGRFTISRDNAKDSLYLQMNSLRAEDTAVYYCARRRSLTVGAPTYWGQGTLVTVSS	binds
2B5 (VHH) VHH: EVQLVESGGGLVKPGGSLRLSCAASGFTFSDYYMTWIRQTPGKGLEWVSYISDDNNTIYYADSVKGRFTISRDNAKNSLYLQMNSLRAEDTAVYYCARDGYFGELPGFDYWGQGTLVTVSS	binds
1B1 (VHH) VHH: EVQLVESGGGLVKSGGSLRLSCAASGFTFSDYYMSWIRQAPGKGLEWVSYISSSGSTIYYADSVKGRFTISRDNAKNSLYLQMNSLRAEDTAVYYCARGISMARDYWGQGTLVTVSS	binds
1H11 (VHH) VHH: EVQLVESGGGLVKPGGSLRLSCAASGFTFSDYYMSWIRRAPGKGLEWVSYISSSGSNIYYVDSVKGRFTISRDNAKNSLYLQMNSLRAEDTAVYYCARGIAMTGDYWGQGTQVTVTS	binds
1C9 (VHH) VHH: EVQLVESGGGLVKPGGSLRLSCAASGFTFSDYYMSWIRQAPGKGLEWVSYISSSGSTIYYADSVKGRFTISRDNAKNSLYLQMNSLRAEDTAVYYCAKGISTTGDYWGQGALVSVSS	binds
1H4 (VHH) VHH: EVQLVESGGGLVKPGGSLRLSCAASGFTFSDYYMSWIRQAPGKGLEWVSYISSSGSTIYYADSVKGRFTISRDNAKNSLYLQMNSLRAEDTAVYYCARGIAMVEDSWGQGTLVTVSS	binds
1F12 (VHH) VHH: EVQLVESGGGLVKPGGSLRLSCAASGFTFSDYYMSWIRQAPGKGLEWVSYISSSGSNIYYADSVKGRFTISRDNAKNSLYLQMNSLRAEDTAVYYCARGIAVAEDVWGQGTTVTVSS	binds
1F1 (VHH) VHH: EVQLVESGGGLVKPGGSLRLSCAASGFTFSDYYMSWIRQAPGKGLEWVSYISSSGSTIYYADSVKGRFTISRDNAKNSLYLQMNSLRAEDTAVYYCARGVKLTEDNWGQGTLVTVSS	binds
1A7 (VHH) VHH: EVQLVESGGGLVKPGGSLRLSCAASGFTFSDYYMSWIRQAPGKGLEWVSYISSSGSTIYYADSVKGRFTISRDNAKNSLYLQMNSLRAEDTAVYYCARGISMTGDYWGQGTLVNVSS	binds

Binder	binding result
4D7 (VHH) VHH: EVQLVEFGGGLVKPGGSLRLSCAASGFTFSDYYMSWIRQAPGKGLEWVSYISSSGSNIYYADSVKGRFTITRDNAKNSLYLQMNSLRAEDTAVYYCARGISMTGDYWGQGTQVTVSS	binds
1D10 (VHH) VHH: EVQLVESGGGLVKPGGSLRLSCAASGFTFSDYYMSWIRQAPGKGLEWVSYISSGGDTIYYADSVKGRFTISRDNAKNSLYLQMNSLRAEDTAVYYCARGISMTGDYWGQGTLVNVSS	binds
4E8 (VHH) VHH: EVQLVESGGGLVKPGGSLRLSCAASGFTFSDYYMSWIRQAPGKGLEWVSYISSSGSTIYYADSVKGRFTISRDNAKNSLYLQMNSLRAEDTAVYYCARGISLTGDYWGQGTLVTVSS	binds
1C4 (VHH) VHH: EVQLVESGGGLVKPGGSLRLSCAASGFTFSDYYMSWIRQAPGKGLEWVSYISSSGSTIYYADSVKGRFTISRDNAKNSLYLQMNSLRAEDTAVYYCARGISMAGDSWGQGTLVTVSS	binds
7H12 (VHH) VHH: EVQLVESGGGLVKPGGSLRLSCAASGFTFSDYYMSWIRQAPGKGLEWVSYISSSGSTIYYADSVKGRFTISRDNAKNSLYLQMNSLRAEDTAVYYCARGISMVGDYWGQGTLVTVSS	binds
4H7 (VHH) VHH: EVQLVESGGGLVKPGGSLRLSCAASGFTFSDYYMSWIRQAPGKGLEWVSYISSSGSTIYYADSVKGRFTISRDNAKNSLYLQMNSLRAEDTAVYYCARGISVTGDSWGQGTLVTVSS	binds
1C8 (VHH) VHH: EVQLVESGGGLVKPGGSLRLSCAASGFTFSDYYMSWIRQAPGKGLEWVSYISSSGSTIYYADSVKGRFTISRDNAKNSLYLQMNSLRAEDTAVYYCARGISMVGDNWGQGTLVTVSS	binds
1F10 (VHH) VHH: EVQLVESGGGLVKPGGSLRLSCAASGFTFSDYYMSWIRQAPGKGLEWVSYISSSGSTIYYADSVKGRFTISRDNAKNSLYLQMSSLRAEDTAVYYCARGISLTGTDWGQGTLVTVSS	binds
4A12 (VHH) VHH: EVQLVESGGGLVKPGGSLRLSCAASGFTFSDYYMSWIRQAPGKGLEWVSYISSSGNTIYYADSVKGRFTISRDNAKNSLYLQMNSLRAEDTAVYYCARDRLGMVRPLHYWGQGTLVTVSS	binds
2E6 (VHH) VHH: EVQLVESGGGLVKPGGSLRLSCAASGFTFSDYYMSWIRQAPGKGLEWVSYISGSGNTIYYADSVKGRFTISRDNAKNSLYLQMNSLRAEDTAVYYCARDRLGMVRPLHYWGQGTLVTVSS	binds
3A6 (VHH) VHH: EVQLVESGGGLVKPGGSLRLSCAASGFTFSDYYMSWIRQAPGKGLEWVSYISGSGNTIYYADSVKGRFTISRDNAKNSLYLQMNSLRAEDTAVYYCARDRLGMDRPLHYWGQGTLVTVSS	binds
3B8 (VHH) VHH: EVQLVESGGGLVKPGGSLRLSCAASGFTFSDYYMSWIRQAPGKGLEWVSYISGSGNTIYYADSVRGRFTISRDNAKNSLYLQMNSLRAEDTALYYCARDRAGMVRGPHYWGQGTLVTVSS	binds
4F5 (VHH) VHH: EVQLVESGGGLVKPGGSLRLSCAASGFTFSDYYMSWIRQAPGKGLEWVSYISSSGSTIYYADSVKGRFTISRDNAKNSLYLQMNSLRAEDTAVYYCARRRSLTVGAPTYWGQGTLVTVSS	binds
2F5 (VHH) VHH: EVQLVESGGDLVEPGGSLRLSCAASGFTFSDYYMSWIRQAPGKGLEWVSYISGSGNTIYYADSVKGRFTISRDNAKNSLYLQMNSLRAEDTAVYYCARDRLGMVRPLHYWGQGTLVTVSS	binds
4F9 (VHH) VHH: EVQLVESGGGLVKPGGSLRLSCAASGFTFSDYYMSWIRQAPGKGLEWVSYISSSGSTIYYADSVKGRFTISRDNAKNSLYLQMNSLRAEDTAVYYCARDLVGATDFDYWGQGTLVTVSS	binds
3C8 (VHH) VHH: EVQLLESGGGLVQPGGSLRLSCAASGFTFSSYAMSWVRQAPGKGLEWVSAITGSGSSTYYADSVKGRFTISRDNSKNTLYLQMNSLRAEDTAVYYCAKDRPYGSGSYKYGMDVGGQGTTVTVSS	binds
